The labels stand for the following.
B1: Mitogen-activated protein kinase 8 (Rattus norvegicus (Rat)), P49185 (parent)
chain: MSRSKRDNNFYSVEIADSTFTVLKRYQNLKPIGSGAQGIVCAAYDAILERNVAIKKLSRPFQNQTHAKRAYRELVLMKCVNHKNIIGLLNVFTPQKSLEEFQDVYIVMELMDANLCQVIQMELDHERMSYLLYQMLCGIKHLHSAGIIHRDLKPSNIVVKSDCTLKILDFGLARTAGTSFMMTPYVVTRYYRAPEVILGMGYKENVDLWSVGCIMGEMVCLKILFPGRDYIDQWNKVIEQLGTPCPEFMKKLQPTVRTYVENRPKYAGYSFEKLFPDVLFPADSEHNKLKASQARDLLSKMLVIDASKRISVDEALQHPYINVWYDPSEAEAPPPKIPDKQLDEREHTIEEWKELIYKEVMDLEERTKNGVIRGQPSPLGAAVINGSQHPVSSPSVNDMSSMSTDPTLASD
partner: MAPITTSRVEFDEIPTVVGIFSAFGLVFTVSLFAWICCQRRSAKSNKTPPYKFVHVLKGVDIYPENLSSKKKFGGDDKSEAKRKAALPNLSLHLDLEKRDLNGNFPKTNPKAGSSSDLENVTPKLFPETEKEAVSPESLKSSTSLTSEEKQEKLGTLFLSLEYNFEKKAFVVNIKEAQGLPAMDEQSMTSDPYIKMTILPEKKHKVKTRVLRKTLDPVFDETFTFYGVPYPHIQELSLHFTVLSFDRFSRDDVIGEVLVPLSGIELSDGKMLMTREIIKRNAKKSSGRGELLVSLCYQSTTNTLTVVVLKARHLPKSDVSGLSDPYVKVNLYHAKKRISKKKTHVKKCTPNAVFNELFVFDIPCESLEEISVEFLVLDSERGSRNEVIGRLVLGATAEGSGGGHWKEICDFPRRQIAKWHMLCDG
B2: Mitogen-activated protein kinase 8 (Rattus norvegicus (Rat)), P49185 (parent)
chain: B1 chain

In experiment [1] the parent is B1. Particulars: with syt4_rat Syt4, P50232.
Variants of B1 are the subject of experiment [2]. The note with it: with syt4_rat Syt4, P50232. This is another data set of the same source.
Variants of B1 are the subject of experiment [3]. The note with it: with syt4_rat Syt4, P50232. This is another data set of the same source.
The variants in experiment [4] derive from B2. Particulars: with jun_rat Jun.
In experiment [5] the parent is B2. Particulars: with jun_rat Jun. The source holds these as a separate data set.

For E329N, the “effect of a mutation on the interaction” value was “disrupting interaction” with syt4_rat Syt4, P50232 [1] and “decreasing interaction” in the experiment with syt4_rat Syt4, P50232 [2]. For D326N, the “effect of a mutation on the interaction” value is reported as “disrupting interaction” in the experiment with syt4_rat Syt4, P50232 [1] and “decreasing interaction” with syt4_rat Syt4, P50232 [2].

For the variant E331N, the “effect of a mutation on the interaction” value is “disrupting interaction” in the experiment with syt4_rat Syt4, P50232 [1] and “decreasing interaction” with syt4_rat Syt4, P50232 [2].

Turning to D162T, the “effect of a mutation on the interaction” value is “decreasing interaction” in the experiment with syt4_rat Syt4, P50232 [3] and “disrupting interaction” in the experiment with syt4_rat Syt4, P50232 [1]. As to D326N, the “effect of a mutation on the interaction” value with jun_rat Jun, P17325 [4] was “disrupting interaction”; with jun_rat Jun, P17325 [5], “decreasing interaction”. Regarding E331N, the “effect of a mutation on the interaction” value in the experiment with jun_rat Jun, P17325 [4] is given as “disrupting interaction”; in the experiment with jun_rat Jun, P17325 [5] it was “decreasing interaction”. In the case of D162T, in the experiment with jun_rat Jun, P17325 [4], the “effect of a mutation on the interaction” value is given as “disrupting interaction”. Take E329N: the “effect of a mutation on the interaction” value is on record as “disrupting interaction” with jun_rat Jun, P17325 [4] and “decreasing interaction” with jun_rat Jun, P17325 [5].

For the origin of these results see IntAct's records for PubMed 18046461.
